Results on one molecule are retold here after patent US20160369006A1 (published 2016).

This assay addresses WT1 peptide … presented by HLA-A0201 (human;). As to the kind of experiment: 125I-labeled antibody saturation cell binding; JMN cells.

B1: ESK1 wildtype IgG1 (antibody, V domains shown)
VH: QMQLVQSGAEVKEPGESLRISCKGSGYSFTNFWISWVRQMPGKGLEWMGRVDPGYSYSTYSPSFQGHVTISADKSTSTAYLQWNSLKASDTAMYYCARVQYSGYYDWFDPWGQGTLVTVSS
VL: not shown
In general, Kd refers to a measure of binding affinity in units of concentration. A low value points to tighter binding. With B1, the Kd was determined as 200 pM.
